Results as given in patent US20210253725A1 (BIONTECH, published 2021).

T1: CD134 expressed on the cell surface of HT1080_OX40 cells (human, UniProt P43489 29-277)
T1 construct: whole, on cells; species not restated for the HT1080 transfectant
T1 sequence (looked up): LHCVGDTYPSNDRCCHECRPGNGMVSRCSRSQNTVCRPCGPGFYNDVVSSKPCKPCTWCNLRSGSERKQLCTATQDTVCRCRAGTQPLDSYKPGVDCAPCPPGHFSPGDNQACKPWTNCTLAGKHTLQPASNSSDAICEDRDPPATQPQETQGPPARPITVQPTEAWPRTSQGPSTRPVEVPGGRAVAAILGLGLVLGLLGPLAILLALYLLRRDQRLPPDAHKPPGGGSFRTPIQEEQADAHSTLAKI

T2: CD134 protein (His-tagged, Sino Biological Inc. 10481-H08H) (human, UniProt P43489 29-216)
T2 construct: bought protein coated on ELISA plates; also called OX40; TNFRSF4; not shown: His tag
T2 sequence (looked up): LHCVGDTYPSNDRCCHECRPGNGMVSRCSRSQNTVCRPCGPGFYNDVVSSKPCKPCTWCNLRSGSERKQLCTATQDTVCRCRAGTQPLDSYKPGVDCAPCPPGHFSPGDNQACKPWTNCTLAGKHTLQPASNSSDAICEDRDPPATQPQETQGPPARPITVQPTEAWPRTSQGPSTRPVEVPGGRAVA


How the values were obtained:
[1] = biological target: T1, CD134 expressed on the cell surface of …; assay: HT1080_OX40 cells, imaging
[2] = biological target: T2, CD134 protein (His-tagged, Sino …); assay: ELISA, coated His-tagged CD134
[3] = biological target: T1, CD134 expressed on the cell surface of …; assay: cell-based or functional assay
Also: test concentration or dose not given here.

Row | Cellular binding assay [RFU] [1] | ELISA [abs. corr.] [2] | Functional assay Cross-linked by F(ab′)2 fragment IL-8 [3] | Functional assay IL-8 [3] | Binder
1 | 396 RFU | 1.67 abs. corr. | 2.15 abs. corr. | 0.33 abs. corr. | P018.S.11.A.F05 (antibody, V domains shown, V regions on human Ig constant parts; also called AB134_41) VH: QSLEESGGRLVTPGTPLTLTCTVSGFSLSRYHMSWVRQAPGKGLEYIGYIHTDDTNWYASWAKGRFTISKTSTTVDLKITSPTTEDTATYFCARVSSVGGYYFDLWGQGTLVTVSS VL: DVVMTQTPASVSEPVGGTVTIKCQASEDIYNLLAWYQQKPGQPPKLLIYAASTLASGVPSRFKGSGSGTQFTLTISDLESADAATYYCQNNYLISSYGVGFGGGTEVVVK
2 | 527 RFU | 2.66 abs. corr. | 2.1 abs. corr. | -0.075 abs. corr. | P018.S.11.A.B03 (antibody, V domains shown, V regions on human Ig constant parts; also called AB134_24) VH: QSLEESGGRLVTPGTPLTLTCTVSGFSLSNYAMSWVRQAPGKGLEWIAIISGSGSTNYASWAKGRFTLSKASTTVALKITSPTTEDTATYFCGRGRDDDYAWDLWGQGTLVTVSS VL: DVVMTQTPASVSEPVGGTVTIKCQASQTISNYLAWYQQKPGQPPKLLIYAASTLASGVSSRFRGSGSGTEFSLTISDLESADAATYYCHCTYYDSSYHGFGGGTEVVVK
3 | 531 RFU | 2.36 abs. corr. | 2.05 abs. corr. | 0.031 abs. corr. | P018.S.11.A.G05 (antibody, V domains shown, V regions on human Ig constant parts; also called AB134_45) VH: QSLEESGGDLVKPGASLTLTCAASGFSLNNWVMCWVRQAPGKGLEWIACIDIVGSGSTHYATWAKGRFTMSKASSITVTLQMTSLTAADTATYFCARGVNGDGNLNLWGPGTLVTVSS VL: DVVMTQTPASVSEPVGGAVTIKCQASETISNYLAWYQQKPGQRPKLLIYGASNLESGVPSRFKGSGSGTEFTLTISDLESADAATYYCQCTYVGDSYTAFGGGTEVVVK
4 | 600 RFU | 2.41 abs. corr. | 2.14 abs. corr. | 0.071 abs. corr. | P018.S.12.A.A01 (antibody, V domains shown, V regions on human Ig constant parts; also called AB134_50) VH: QSVEESGGRLVTPGTPLTLTCTVSGFSLSSYAMIWVRQAPGKGLEYIGYISYDGSTYYASWVKGRFTISKTSTTVDLKMTSLTTEDTATYFCARARIDDGYGNLWGQGTLVTVSS VL: DVVMTQTPASVSEPVGGTVTIKCQASESISNYLAWYQQKPGQPPKLLIYAASYLASGVPSRFRGSGSGTEFTLTISDLESADAATYYCQCTYVASTYVGTFGGGTEVVVK
5 | 483 RFU | 1.96 abs. corr. | 2.11 abs. corr. | 0.238 abs. corr. | P018.S.12.A.C03 (antibody, V domains shown, V regions on human Ig constant parts; also called AB134_63) VH: QEQLKESGGDLVTPGTPLTLTCTVSGFSLSSYAMAWVRQAPGKGLEYIGFIDTDGSAYYASWAKGRFTISRTSTTVDLKITSPTTEDTATYFCAGDSYGYAGFVYFNLWGPGTLVTVSS VL: DVVMTQTPASVSEPVGGTVTIKCQASQNIYSSLAWYQQKPGQPPKLLIYDASDLASGVPSRFKGSGSGTQFTLTISDLESDDAATYYCQCSYYGVDYVGGFGGGTEVVVK
6 | 523 RFU | 1.93 abs. corr. | 2.11 abs. corr. | 0.132 abs. corr. | P018.S.12.A.E05 (antibody, V domains shown, V regions on human Ig constant parts; also called AB134_76) VH: QSVEESGGRLVTPGGSLTLTCTASGFDLSSYATSWVRQAPGKGLEWIGIIYGSGSTTYASWVKGQFTISKSSSTTVDLKMTSLTTEDTATYFCARGLVASTDNYNLWGPGTLVTVSS VL: AAVLTQTPSPVSVAVGGTVTINCQASQSVYNNNYLAWFQQKPGQPPKLLIYLASILASGVPSRFKGSGSGTQFTLTINGVQSDDAATYYCLGDVGGGERVFGGGTEVVVK
7 | 331 RFU | 3.21 abs. corr. | 2.11 abs. corr. | 1.99 abs. corr. | P018.S.04.A.B04 (antibody, V domains shown, V regions on human Ig constant parts; also called AB134_6) VH: QSLEESGGRLVTPGTPLTLTCTASGIDLNNYAMSWVRQAPGKGLEWIGIISGAGYTYYTTWAKGRFTISKTSTTVDLKITSPTTEDTATYFCARIYDSYGYAYVPYYDMDLWGPGTLVTVSS VL: AAVLTQTPSPVSTAVGGTVTINCQSSQSVFMNNYLSWYQQKPGQPPKLLIYDASTLASRVPDRFSGSGSGTQFTLTISGVQSDDAAAYYCLGGYDDDSATTFGGGTEVVVE
8 | 571 RFU | 2.05 abs. corr. | 2.14 abs. corr. | 0.936 abs. corr. | P018.S.12.A.C02 (antibody, V domains shown, V regions on human Ig constant parts; also called AB134_62) VH: QEQLVESGGGLVQPEGSLTLTCTASGFSFSNNAMCWVRQAPGKGLEWIACIYDGSSGSTYYATWAKGRFTISKTSSTTVTLQMTSLTAADTATYFCARAYGGYTVYDYAFNLWGPGTLVTVSS VL: DVVMTQTPASVSEPVGGTVTIKCQASQSIGSDLAWYQQKPGQPPKLLIYYTTNLETGVSSRFKGSRSGTEYALTISDLESADAATYYCQYGVRSTYSFGGGTEVVVK
9 | 441 RFU | 2.13 abs. corr. | 2.1 abs. corr. | 0.403 abs. corr. | P018.S.11.A.B06 (antibody, V domains shown, V regions on human Ig constant parts; also called AB134_27) VH: QSVEESGGRLVTPGTPLTLTCTASGFSLINYNMGWVRQAPGEGLEWIGTILTDGTVYYSNWAKGQFTISKTSTTVDLEMTSPTNEDTATYFCARDYPSYIAFDLWGPGTLVTVSS VL: AQVLTQTASSVSAAVGGTVTINCQASQSVYNDDNLAWLQQKPGQPPKLLIYGASSLASGVPSRFSGSGSGTEFTLTISGVQSEDAAIYYCQGGGFSSGWYWAFGGGTEVVVK

Further lines, the binder ahead of its results:

Row | Binder | Cellular binding assay [RFU] [1] | ELISA [abs. corr.] [2] | Functional assay Cross-linked by F(ab′)2 fragment IL-8 [3] | Functional assay IL-8 [3]
10 | P018.S.11.A.F04 (antibody, V domains shown, V regions on human Ig constant parts; also called AB134_40) VH: QSVEESGGRLVTPGTPLTLTCTVSGFSLSRYTMGWVRQAPGKGLEYIGIIYGDDNTYYASWAKGRLTISKTSSTTVDLKITSPTTEDTATYFCASCAPIYYNTFSFNLWGQGTLVTVSA VL: AYDMTQTPASVEVAVGGTVTIKCQASQTIGGSLSWYQQKPGQPPKLLIYAAATLASGVPSRFKGSGSGTQFTLTISGVESDDAATYYCQQHYTGDNVNNPFGGGTEVVVK | 486 RFU | 2.25 abs. corr. | 2.11 abs. corr. | 0.568 abs. corr.
11 | P018.S.12.A.B03 (antibody, V domains shown, V regions on human Ig constant parts; also called AB134_58) VH: QSLEESGGRLVTPGTPLTLICTVSGIDLSSGAMGWVRQAPGKGLEYIGYIYTGSGTTSYASWVNGRFTISMTSTTVDLKITSPTTEDTATYFCARDAASSYWGHFTLWGQGTLVTVSS VL: DIVMTQTPASVEAAVGGTVTIKCQASENIYSSLAWYQQKPGQPPKLLIYRTSTLASGVPSRFKGSGSGTQFTLTISDLESDDAATYYCQSYYHNSGGGYDYGFGGGTEVVAK | 446 RFU | 1.18 abs. corr. | 2.05 abs. corr. | 1.07 abs. corr.
12 | P018.S.12.A.B01 (antibody, V domains shown, V regions on human Ig constant parts; also called AB134_56) VH: QEQLVESGGGLVQPEGSLTLTCKASGFDFSYNSMCWVRQAPGKGLEWITCIYNGDGSTWYASWAKGRFTISKTSSTTVTLQMTSLTAADTATYFCTRDFGLWGPGTLVTVSS VL: ALVMTQTPSSTSEPVGGTVTINCQASESVANHKQLSWYQQKPGQPPKVLIYYASTLASGVPSRFKGSGSGTQFTLTISDVVSDDAATYYCSGYKSISTDGNAFGGGTEVVVK | 607 RFU | 2.34 abs. corr. | 2.11 abs. corr. | 0.396 abs. corr.
13 | P018.S.12.A.C06 (antibody, V domains shown, V regions on human Ig constant parts; also called AB134_66) VH: QSVEESGGRLVKPDETLTLICTVSGIDLSINVVGWVRQAPGEGLEWIGDISSHGDTIYATWAKGRFTISKTSTTVDLKMTSLTASDTATYFCARYVGDGYYDLWGPGTLVTVSS VL: AYDMTQTPASVSAAVGGTVTINCQASQSISNLLAWYQQKPGQRPKLLIYDTSKLASGVPSRFKGSGSGTQFTLTISDLESADAATYYCQQSYSSSNIANLFGGGTEVVVK | 525 RFU | 2.35 abs. corr. | 2.1 abs. corr. | 0.881 abs. corr.
14 | P018.S.12.A.G03 (antibody, V domains shown, V regions on human Ig constant parts; also called AB134_85) VH: QSLEESGGRLVTPGGSLTLTCTLSGIDLSSNAISWVRQAPGKGLEWIGIIFPGDNIYYATWAKGRFTISKTSTTVDLKMTSLRTADTATYFCARYHADDSVDLWGPGTLVTVSS VL: AYDMTQTPASVSEPVGGTVTIKCQASQSINGWLSWYQQKPGQRPRLLIYRASDLAPGVSSRFKGSGSGTQFTLTISDVESADAATYYCHLGDIYSNIDYVFGGGTEVVVK | 452 RFU | 2.52 abs. corr. | 2.1 abs. corr. | 0.209 abs. corr.
15 | P018.S.12.A.H05 (antibody, V domains shown, V regions on human Ig constant parts; also called AB134_91) VH: QSLEESGGDLVKPGASLTLTCTASGFSFDIDYYMCWVRQAPGKGLEWIACIYAGSSGSTYYASWAKGRFTISKTSSTTVTLQMPSLTAADTATYFCARHYAGYAGDAYATDYYFNLWGRGTLVTVSS VL: DIVMTQTPSSVSATVGDTVTINCQASQSVSNFLAWYQQKPGQPPKPLIYGASNLESGVPSRFRGSGSGTEFTLTISGMKAEDAATYYCQSGYYSATFGAGTKVEIK | 527 RFU | 2.37 abs. corr. | 2.19 abs. corr. | 0.348 abs. corr.
16 | P018.S.12.A.B06 (antibody, V domains shown, V regions on human Ig constant parts; also called AB134_60) VH: QEQLEESGGGLVQPEGSLTLTCTASGFSFSYYWMCWVRQAPGKGLEWSACIGTGSGSTYYATWAKGRFTISKTSSTTVTLQMTSLTAADTATYFCARDWGIYSSDAYYMDYFNLWGPGTLVTVSS VL: AFELTQTPASVEAAVGGTVTIKCQASQSIGSYLAWYQQKPGQPPKPLIYEASKLASGVSSRFKGSGSGTQFTLTISGVESADAATYYCQQGGISTNVQNAFGGGTEVVVK | 451 RFU | 1.4 abs. corr. | 2.07 abs. corr. | 1.84 abs. corr.
